The numbers were not newly measured in publication PMC10359924, which cites them from elsewhere.

Where two headings read alike, the source gives them in different places.

Series [1] deals with IL-4Rα (Homo sapiens) (UniProt P24394).
In series [2] the target is γc (Homo sapiens) (UniProt P31785).
Series [3] deals with IL-13Rα1 (Homo sapiens) (UniProt P78552).
For series [4] the target is unchanged. The source holds these as a separate data set.
Series [5] deals with IL-4Rα (Homo sapiens) (UniProt P24394). This is another data set of the same source.

Sequence of IL-4Rα (Homo sapiens) (P24394 26-232): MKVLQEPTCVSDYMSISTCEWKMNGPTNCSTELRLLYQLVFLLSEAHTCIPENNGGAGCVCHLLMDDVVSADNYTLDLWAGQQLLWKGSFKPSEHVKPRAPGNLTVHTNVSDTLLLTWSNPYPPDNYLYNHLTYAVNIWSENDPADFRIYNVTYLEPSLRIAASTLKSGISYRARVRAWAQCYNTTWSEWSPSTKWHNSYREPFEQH
Sequence of IL-13Rα1 (Homo sapiens) (P78552 22-343): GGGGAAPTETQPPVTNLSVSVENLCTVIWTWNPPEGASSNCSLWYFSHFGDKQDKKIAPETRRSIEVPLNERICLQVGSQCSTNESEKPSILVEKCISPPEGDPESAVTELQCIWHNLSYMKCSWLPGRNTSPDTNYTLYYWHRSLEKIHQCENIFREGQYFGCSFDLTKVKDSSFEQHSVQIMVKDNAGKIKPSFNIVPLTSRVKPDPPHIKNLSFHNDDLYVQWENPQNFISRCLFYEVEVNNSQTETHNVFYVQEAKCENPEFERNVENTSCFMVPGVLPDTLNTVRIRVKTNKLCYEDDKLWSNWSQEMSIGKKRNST
Sequence of IL-4/IL-4Rα complex (P05112 25-153): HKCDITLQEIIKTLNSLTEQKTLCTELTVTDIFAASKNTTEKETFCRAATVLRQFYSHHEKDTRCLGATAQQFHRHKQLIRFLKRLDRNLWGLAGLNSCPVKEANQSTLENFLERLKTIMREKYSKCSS
Sequence of IL-4/IL-4Rα complex (P24394 26-232, further chain): as the sequence (P24394 26-232) above
Sequence of IL-13/IL-13Rα1 complex (P35225 25-146): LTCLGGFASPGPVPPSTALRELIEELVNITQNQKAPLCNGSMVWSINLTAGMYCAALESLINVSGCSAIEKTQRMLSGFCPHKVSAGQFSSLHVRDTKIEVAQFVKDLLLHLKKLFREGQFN
Sequence of IL-13/IL-13Rα1 complex (P78552 22-343, further chain): as the sequence (P78552 22-343) above
Sequence of IL-13 (P35225 25-146): as the sequence (P35225 25-146) above
Sequence of γc (Homo sapiens) (P31785 23-262): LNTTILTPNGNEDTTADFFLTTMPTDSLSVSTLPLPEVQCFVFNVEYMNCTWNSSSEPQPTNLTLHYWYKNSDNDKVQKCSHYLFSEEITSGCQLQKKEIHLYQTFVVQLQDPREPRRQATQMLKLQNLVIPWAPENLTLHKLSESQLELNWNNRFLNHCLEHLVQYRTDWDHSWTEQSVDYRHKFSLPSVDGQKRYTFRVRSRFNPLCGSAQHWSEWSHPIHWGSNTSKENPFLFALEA
Sequence of IL-4 (P05112 25-153): as the sequence (P05112 25-153) above

For the substance IL-4 (from UniProt P05112), the Kd in series [1] was 1 nM.
For the substance “IL-4/IL-4Rα complex (from UniProt P05112)”, the Kd in series [2] is 559 nM; in series [3], 487 nM.
Regarding IL-13 (from UniProt P35225), the Kd in series [4] is 30 nM.
On to “IL-13/IL-13Rα1 complex (from UniProt P35225)”, for which the Kd in series [5] was 20 nM.

As a reminder, the Kd is the equilibrium constant for the complex coming apart.
